Laboratory results reported in patent US20240034774A1 (Gilead, published 2024).
Positions count from the first letter of the chain named.

B1: Antibody A-1 (antibody, human IgG1, kappa)
heavy: QVQLLQSGAAVTKPGASVRVSCEASGYNIRDYFIHWWRQAPGQGLQWVGWINPKTGQPNNPRQFQGRVSLTRHASWDFDTFSFYMDLKALRSDDTAVYFCARQRSDYWDFDVWGSGTQVTVSSASTKGPSVFPLAPSSKSTSGGTAALGCLVKDYFPEPVTVSWNSGALTSGVHTFPAVLQSSGLYSLSSVVTVPSSSLGTQTYICNVNHKPSNTKVDKKVEPKSCDKTHTCPPCPAPELLAGPDVFLFPPKPKDTLMISRTPEVTCVVVDVSHEDPEVKFNWYVDGVEVHNAKTKPREEQYNSTYRVVSVLTVLHQDWLNGKEYKCKVSNKALPLPEEKTISKAKGQPREPQVYTLPPSREEMTKNQVSLTCLVKGFYPSDIAVEWESNGQPENNYKTTPPVLDSDGSFFLYSKLTVDKSRWQQGNVFSCSVLHEALHSHYTQKSLSLSPGK
light: DIQMTQSPSSLSASVGDTVTITCQANGYLNWYQQRRGKAPKLLIYDGSKLERGVPSRFSGRRWGQEYNLTINNLQPEDIATYFCQVYEFVVPGTRLDLKRTVAAPSVFIFPPSDEQLKSGTASVVCLLNNFYPREAKVQWKVDNALQSGNSQESVTEQDSKDSTYSLSSTLTLSKADYEKHKVYACEVTHQGLSSPVTKSFNRGEC
B2: 1.36.1-1 (antibody, human IgG1, kappa)
heavy: QVQLVQSGAEVKKPGASVRVSCKASGYNIRDYFMHWWRQAPGQGLQWVGWINPKTGQPNNPRQFQGRVTMTRHASWDFDTFSAYMDLSRLRSDDTATYFCARQRTDYWDFDVWGQGTMVTVSSASTKGPSVFPLAPSSKSTSGGTAALGCLVKDYFPEPVTVSWNSGALTSGVHTFPAVLQSSGLYSLSSVVTVPSSSLGTQTYICNVNHKPSNTKVDKKVEPKSCDKTHTCPPCPAPELLAGPDVFLFPPKPKDTLMISRTPEVTCVVVDVSHEDPEVKFNWYVDGVEVHNAKTKPREEQYNSTYRVVSVLTVLHQDWLNGKEYKCKVSNKALPLPEEKTISKAKGQPREPQVYTLPPSREEMTKNQVSLTCLVKGFYPSDIAVEWESNGQPENNYKTTPPVLDSDGSFFLYSKLTVDKSRWQQGNVFSCSVLHEALHSHYTQKSLSLSPGK
light: B1 light
B3: 1.1.11-1 (antibody, human IgG1, kappa)
heavy: B1 heavy
light: B1 light with R61S, N68T
B4: 1.1.24-1 (antibody, human IgG1, kappa)
heavy: B1 heavy
light: B1 light with L96V
B5: 1.1.20-1 (antibody, human IgG1, kappa)
heavy: B1 heavy
light: B1 light with R95N
B6: 1.1.23-1 (antibody, human IgG1, kappa)
heavy: B1 heavy
light: B1 light with V91T, R95N
B7: 1.1.9-1 (antibody, human IgG1, kappa)
heavy: B1 heavy
light: B1 light with R52T
B8: 1.1.12-1 (antibody, human IgG1, kappa)
heavy: B1 heavy
light: B1 light with N72S, N73S
B9: 1.1.30-1 (antibody, human IgG1, kappa)
heavy: B1 heavy
light: B1 light with V91T, R95N, L96V, L98I
B10: 1.1.22-1 (antibody, human IgG1, kappa)
heavy: B1 heavy
light: B1 light with V91S, R95N
B11: 1.1.26-1 (antibody, human IgG1, kappa)
heavy: B1 heavy
light: B1 light with L98I
B12: 1.1.3-1 (antibody, human IgG1, kappa)
heavy: B1 heavy
light: B1 light with D1E
B13: 1.1.19-1 (antibody, human IgG1, kappa)
heavy: B1 heavy
light: B1 light with V91T
B14: 1.1.13-1 (antibody, human IgG1, kappa)
heavy: B1 heavy
light: B1 light with R61S, N68T, N72S, N73S
B15: 1.1.17-1 (antibody, human IgG1, kappa)
heavy: B1 heavy
light: B1 light with V90F, V91G
B16: 1.1.21-1 (antibody, human IgG1, kappa)
heavy: B1 heavy
light: B1 light with V91G, R95N
B17: 1.1.15-1 (antibody, human IgG1, kappa)
heavy: B1 heavy
light: B1 light with V90F
B18: 1.1.16-1 (antibody, human IgG1, kappa)
heavy: B1 heavy
light: B1 light with V91G
B19: 1.1.25-1 (antibody, human IgG1, kappa)
heavy: B1 heavy
light: B1 light with R95N, L96V
B20: 1.1.5-1 (antibody, human IgG1, kappa)
heavy: B1 heavy
light: B1 light with R35K, R36P
B21: 1.1.8-1 (antibody, human IgG1, kappa)
heavy: B1 heavy
light: B1 light with G47A, K49N
B22: 1.1.27-1 (antibody, human IgG1, kappa)
heavy: B1 heavy
light: B1 light with L96V, L98I
B23: 1.1.4-1 (antibody, human IgG1, kappa)
heavy: B1 heavy
light: B1 light with T18R
B24: 1.1.29-1 (antibody, human IgG1, kappa)
heavy: B1 heavy
light: B1 light with V91G, R95N, L96V, L98I
B25: 1.1.10-1 (antibody, human IgG1, kappa)
heavy: B1 heavy
light: B1 light with N68T
B26: 1.1.28-1 (antibody, human IgG1, kappa)
heavy: B1 heavy
light: B1 light with R95N, L96V, L98I
B27: 1.1.6-1 (antibody, human IgG1, kappa)
heavy: B1 heavy
light: B1 light with G47A
B28: 1.1.7-1 (antibody, human IgG1, kappa)
heavy: B1 heavy
light: B1 light with K49N
B29: 1.1.18-1 (antibody, human IgG1, kappa)
heavy: B1 heavy
light: B1 light with V91S

How the values were obtained:
gp120 Bal = gp120 Bal (HIV (Bal)); assay: single-point ELISA at EC50 conc. of A-1
gp120 SHIV SF162 P3 = gp120 SHIV SF162 P3 (SHIV SF162 P3); assay: single-point ELISA at EC50 conc. of A-1
gp120 CAAN = gp120 CAAN (HIV (CAAN)); assay: single-point ELISA at EC50 conc. of A-1
BSA = BSA (UniProt P02769 25-607); assay: single-point ELISA, BSA control

| Binder | ELISA A450 (gp120 Bal) | ELISA A450 (gp120 SHIV SF162 P3) | ELISA A450 (gp120 CAAN) | ELISA A450 (BSA) |
| --- | --- | --- | --- | --- |
| B1 | 0.91 A450 | 0.94 A450 | 1.06 A450 | 0.06 A450 |
| B2 | 1.13 A450 | 0.59 A450 | 0.75 A450 | – |
| B3 | 0.92 A450 | 0.93 A450 | 1.03 A450 | 0.06 A450 |
| B4 | 0.88 A450 | 0.97 A450 | 0.98 A450 | 0.06 A450 |
| B5 | 0.94 A450 | 1.01 A450 | 0.95 A450 | 0.07 A450 |
| B6 | 0.9 A450 | 1.07 A450 | 0.95 A450 | 0.06 A450 |
| B7 | 0.98 A450 | 1.09 A450 | 0.93 A450 | 0.07 A450 |
| B8 | 1.05 A450 | 1.13 A450 | 1.02 A450 | 0.06 A450 |
| B9 | 0.9 A450 | 0.98 A450 | 0.86 A450 | 0.06 A450 |
| B10 | 0.88 A450 | 1.04 A450 | 1.02 A450 | 0.06 A450 |
| B11 | 0.96 A450 | 1.09 A450 | 1.07 A450 | 0.06 A450 |
| B12 | 0.97 A450 | 0.97 A450 | 1 A450 | 0.07 A450 |
| B13 | 1.03 A450 | 1.12 A450 | 1.05 A450 | 0.06 A450 |
| B14 | 0.94 A450 | 0.97 A450 | 1.11 A450 | 0.06 A450 |
| B15 | 1.02 A450 | 1.07 A450 | 0.9 A450 | 0.06 A450 |
| B16 | 0.98 A450 | 1.03 A450 | 0.99 A450 | 0.06 A450 |
| B17 | 0.93 A450 | 0.79 A450 | 0.79 A450 | 0.06 A450 |
| B18 | 1.06 A450 | 1.05 A450 | 0.99 A450 | 0.06 A450 |
| B19 | 0.9 A450 | 1.01 A450 | 0.92 A450 | 0.07 A450 |
| B20 | 0.9 A450 | 0.93 A450 | 0.9 A450 | 0.06 A450 |
| B21 | 1.01 A450 | 0.37 A450 | 0.5 A450 | 0.06 A450 |
| B22 | 0.97 A450 | 1.1 A450 | 0.99 A450 | 0.06 A450 |
| B23 | 0.96 A450 | 1.07 A450 | 1.09 A450 | 0.06 A450 |
| B24 | 0.91 A450 | 0.9 A450 | 1.01 A450 | 0.06 A450 |
| B25 | 0.94 A450 | 1.02 A450 | 1.1 A450 | 0.06 A450 |
| B26 | 0.98 A450 | 1.09 A450 | 0.93 A450 | 0.06 A450 |
| B27 | 0.91 A450 | 0.41 A450 | 0.46 A450 | 0.07 A450 |
| B28 | 0.95 A450 | 1.02 A450 | 1 A450 | 0.06 A450 |
| B29 | 0.92 A450 | 0.94 A450 | 0.92 A450 | 0.06 A450 |
